Sequences and labels used below:
B1: DNA replication licensing factor MCM3 (Mus musculus), P25206 (parent)
chain: MAGTVVLDDVELREAQRDYLDFLDDEEDQGIYQNKVRELISDNQYRLIVSVNDLRRKNEKRANRLLNNAFEELVAFQRALKDFVASIDATYAKQYEEFYIGLEGSFGSKHVSPRTLTSCFLSCVVCVEGIVTKCSLVRPKVVRSVHYCPATKKTIERRYSDLTTLVAFPSSSVYPTKDEENNPLETEYGLSVYKDHQTITIQEMPEKAPAGQLPRSVDVILDDDLVDKVKPGDRIQVVGTYRCLPGKKGCYTSGTFRTVLIACNVKQMSKDIQPAFSADDIAKIKKFSKTRSKDVFEQLARSLAPSIHGHDYVKKAILCLLLGGVERELENGSHIRGDINILLIGDPSVAKSQLLRYVLCTAPRAIPTTGRGSSGVGLTAAVTTDQETGERRLEAGAMVLADRGVVCIDEFDKMSDMDRTAIHEVMEQGRVTIAKAGIHARLNARCSVLAAANPVYGRYDQYKTPMENIGLQDSLLSRFDLLFIMLDQMDPEQDREISDHVLRMHQYRAPGEQDGDALPLGSSVDILATDDPDFTQDDQQDTRIYEKHDSLLHGTKKKKEKMVSAAFMKKYIHVAKIIKPTLTQESAAYIAEEYSRLRSQDSMSSDTARTSPVTARTLETLIRLATAHAKARMSKTVDLQDAEEAVELVQYAYFKKVLEKEKKRKKASEDESDLEDEEEKSQEDTEQKRKRRKTHAKDGESYDPYDFSEAETQMPQVHTPKTDDSQEKTDDSQETQDSQKVELSEPRLKAFKAALLEVFQEAHEQSVGMLHLTESINRNREEPFSSEEIQACLSRMQDDNQVMVSEGIVFLI
partner: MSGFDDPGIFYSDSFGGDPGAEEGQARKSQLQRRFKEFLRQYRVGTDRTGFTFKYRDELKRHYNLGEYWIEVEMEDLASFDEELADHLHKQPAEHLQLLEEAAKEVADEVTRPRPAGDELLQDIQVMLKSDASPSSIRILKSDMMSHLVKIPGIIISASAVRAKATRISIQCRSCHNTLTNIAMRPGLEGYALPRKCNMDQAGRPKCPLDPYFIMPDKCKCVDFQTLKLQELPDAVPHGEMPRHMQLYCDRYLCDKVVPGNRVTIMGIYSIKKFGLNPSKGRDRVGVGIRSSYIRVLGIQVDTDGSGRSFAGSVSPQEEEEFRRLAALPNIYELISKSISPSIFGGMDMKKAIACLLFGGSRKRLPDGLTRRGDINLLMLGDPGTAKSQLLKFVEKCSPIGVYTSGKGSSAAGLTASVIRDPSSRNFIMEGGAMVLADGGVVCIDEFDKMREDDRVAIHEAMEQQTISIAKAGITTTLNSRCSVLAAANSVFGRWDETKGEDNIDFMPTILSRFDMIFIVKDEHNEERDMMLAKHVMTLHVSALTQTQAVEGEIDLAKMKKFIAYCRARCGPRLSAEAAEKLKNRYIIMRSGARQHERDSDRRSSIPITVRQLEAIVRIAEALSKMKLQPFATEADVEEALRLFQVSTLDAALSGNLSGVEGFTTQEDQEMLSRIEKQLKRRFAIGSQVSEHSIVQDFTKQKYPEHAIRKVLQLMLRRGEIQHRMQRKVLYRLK
B2: DNA replication licensing factor MCM3 (Mus musculus), P25206 (parent)
chain: B1 chain

In one assay the parent is B1. The conditions noted are these: with mcm5_mouse Mcm5, P49718.
As for S112A;T719A, the “effect of a mutation on the interaction” value is reported as “decreasing interaction”. For S112A;S611A, the “effect of a mutation on the interaction” value is “decreasing interaction”. Still for that read-out and setting: next, S112A: “decreasing interaction”; S112A;T464A;S611A;T719A: “disrupting interaction”.

Variants of B2 are the subject of another assay. The conditions noted are these: with mcm2_mouse Mcm2, P97310.
Chain of mcm2_mouse Mcm2, P97310 (P97310 whole entry): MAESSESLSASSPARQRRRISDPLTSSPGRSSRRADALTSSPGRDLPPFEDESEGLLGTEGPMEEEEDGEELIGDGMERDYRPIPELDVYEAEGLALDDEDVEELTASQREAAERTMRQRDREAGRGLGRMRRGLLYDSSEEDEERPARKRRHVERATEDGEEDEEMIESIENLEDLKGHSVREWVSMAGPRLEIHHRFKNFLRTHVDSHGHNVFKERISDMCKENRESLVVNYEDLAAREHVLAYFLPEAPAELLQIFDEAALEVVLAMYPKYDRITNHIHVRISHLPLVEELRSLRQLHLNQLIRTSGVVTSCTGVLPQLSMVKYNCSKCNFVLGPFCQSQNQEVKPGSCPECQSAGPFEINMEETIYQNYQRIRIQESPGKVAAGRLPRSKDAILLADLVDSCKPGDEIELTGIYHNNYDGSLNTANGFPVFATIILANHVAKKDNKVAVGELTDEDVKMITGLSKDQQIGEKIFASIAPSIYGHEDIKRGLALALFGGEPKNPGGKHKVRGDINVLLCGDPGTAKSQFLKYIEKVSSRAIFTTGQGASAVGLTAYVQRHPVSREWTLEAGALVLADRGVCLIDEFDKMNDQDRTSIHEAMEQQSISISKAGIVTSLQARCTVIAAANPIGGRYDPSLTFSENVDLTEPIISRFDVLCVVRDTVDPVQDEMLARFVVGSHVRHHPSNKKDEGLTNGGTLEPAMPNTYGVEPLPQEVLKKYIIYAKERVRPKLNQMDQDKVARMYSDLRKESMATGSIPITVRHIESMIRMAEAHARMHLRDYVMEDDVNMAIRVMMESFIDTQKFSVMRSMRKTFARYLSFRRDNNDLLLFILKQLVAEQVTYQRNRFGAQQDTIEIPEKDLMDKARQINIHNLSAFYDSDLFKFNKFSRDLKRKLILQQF
Regarding S112A, the “effect of a mutation on the interaction” value is “disrupting interaction”.

The variants in the next assay derive from B2. The conditions noted are these: with mcm7_mouse Mcm7, Q61881.
Chain of mcm7_mouse Mcm7, Q61881 (Q61881 whole entry): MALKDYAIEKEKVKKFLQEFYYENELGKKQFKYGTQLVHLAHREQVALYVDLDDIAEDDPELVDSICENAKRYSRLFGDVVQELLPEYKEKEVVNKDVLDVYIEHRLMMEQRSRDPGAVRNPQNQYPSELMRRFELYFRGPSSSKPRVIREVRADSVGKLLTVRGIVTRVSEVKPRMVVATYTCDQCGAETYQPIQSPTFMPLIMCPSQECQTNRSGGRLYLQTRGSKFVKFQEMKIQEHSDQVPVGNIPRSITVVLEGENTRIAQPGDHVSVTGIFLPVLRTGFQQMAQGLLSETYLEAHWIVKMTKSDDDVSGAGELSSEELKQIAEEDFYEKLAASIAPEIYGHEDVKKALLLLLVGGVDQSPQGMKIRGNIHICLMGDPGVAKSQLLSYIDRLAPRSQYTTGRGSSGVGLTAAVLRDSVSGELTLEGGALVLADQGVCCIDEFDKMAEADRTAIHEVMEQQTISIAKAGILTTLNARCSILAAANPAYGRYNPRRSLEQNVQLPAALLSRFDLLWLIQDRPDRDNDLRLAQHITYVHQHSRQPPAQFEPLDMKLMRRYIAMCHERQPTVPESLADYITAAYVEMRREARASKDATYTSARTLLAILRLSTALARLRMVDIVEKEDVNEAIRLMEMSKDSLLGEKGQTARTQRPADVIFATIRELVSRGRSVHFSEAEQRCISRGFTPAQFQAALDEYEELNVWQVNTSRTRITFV
As for S112A, the “effect of a mutation on the interaction” value is “disrupting interaction”.

The record behind these values is IntAct's records for PubMed 18524952.
